Source: patent US20210139548A1 (published 2021)
*1 amine or outer side, *2 acyl side, *3 side chain or, on linkers, in order; H or OH if unused. Side-chain parts run from the residue outwards. The star is where a group is joined. C18 diacid = O=C(O)CCCCCCCCCCCCCCCCC(=O)*; γGlu = O=C(O)[C@H](CCC(=O)[*:2])N[*:1]; Isovaleryl = CC(C)CC(=O)*; AEEA = NCCOCCOCC(=O)O

T1: human neuropeptide Y2 receptor (human, UniProt P49146 1-381)
T1 construct: whole, on cells; also called hNPY2 receptor; hNPY2-R
T1 sequence (looked up): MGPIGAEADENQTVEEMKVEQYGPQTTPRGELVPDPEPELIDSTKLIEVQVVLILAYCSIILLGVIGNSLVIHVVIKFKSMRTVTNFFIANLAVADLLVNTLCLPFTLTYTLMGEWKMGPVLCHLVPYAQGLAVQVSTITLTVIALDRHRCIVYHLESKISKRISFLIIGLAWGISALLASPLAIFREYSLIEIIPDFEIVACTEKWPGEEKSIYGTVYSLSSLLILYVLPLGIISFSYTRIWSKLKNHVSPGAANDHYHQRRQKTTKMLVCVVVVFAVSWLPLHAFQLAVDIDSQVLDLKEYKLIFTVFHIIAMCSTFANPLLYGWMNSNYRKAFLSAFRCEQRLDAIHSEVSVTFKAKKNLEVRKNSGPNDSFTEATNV


Molecular target: T1, human neuropeptide Y2 receptor
Test: radioligand competition (125I-PYY(1-36)), hNPY2R membranes
Experimental: The filtration RLB assay was carried out in 96-well plates in a final volume of 100 μl per well. Freeze-dried test peptides were dissolved in 100% dimethyl sulfoxide (DMSO) to stock solutions of 1 mM and serial dilutions were performed in assay buffer (50 mM HEPES, 5 mM MgCl₂, 1 mM CaCl₂, pH 7.4) containing 0.2% ovalbumin. […] Next, 80 μL membranes (HTS066M, ChemiSCREEN™ Human Neuropeptide Y2 Receptor Membrane Preparation, CHEMICON) were added to each well to give a final protein concentration of 0.5 μg/well. The plates were sealed and incubated at room temperature for 2 hours in a plate shaker set at 400 rpm. The incubation was stopped by vacuum filtration onto 0.5% poly-ethylene amine (PEI) presoaked GF/C filters using a 96-well FilterMate™ harvester (Perkin Elmer) followed by four washes with 300 μl/well ice-cold wash buffer (50 mM HEPES, 500 mM NaCl, pH7.4). Filter plates were then dried for 60 min at room temperature and the bottom of the plates was sealed with backing tape UniFilter-96. Finally, 50 μl/well scintillation counter cocktail (Microscint20, Packard) was added and the radioactivity was counted in the Packard TopCount NXT scintillation counter. IC₅₀ values (the half maximal inhibitory concentration of the agonist) were calculated by nonlinear regression analysis of sigmoidal dose-response curves.

Binder | Ki [nM]
Isovaleryl-APEK([AEEA-AEEA-γGlu-C18 diacid])PEEDASPAELQRYYVSLRHYYNWLTRQRY-NH2 (SMILES CC(C)CC(=O)N[C@@H](C)C(=O)N1CCC[C@H]1C(=O)N[C@@H](CCC(=O)O)C(=O)N[C@@H](CCCCNC(=O)COCCOCCNC(=O)COCCOCCNC(=O)CC[C@H](NC(=O)CCCCCCCCCCCCCCCCC(=O)O)C(=O)O)C(=O)N1CCC[C@H]1C(=O)N[C@@H](CCC(=O)O)C(=O)N[C@@H](CCC(=O)O)C(=O)N[C@@H](CC(=O)O)C(=O)N[C@@H](C)C(=O)N[C@@H](CO)C(=O)N1CCC[C@H]1C(=O)N[C@@H](C)C(=O)N[C@@H](CCC(=O)O)C(=O)N[C@@H](CC(C)C)C(=O)N[C@@H](CCC(N)=O)C(=O)N[C@@H](CCCNC(=N)N)C(=O)N[C@@H](Cc1ccc(O)cc1)C(=O)N[C@@H](Cc1ccc(O)cc1)C(=O)N[C@H](C(=O)N[C@@H](CO)C(=O)N[C@@H](CC(C)C)C(=O)N[C@@H](CCCNC(=N)N)C(=O)N[C@@H](Cc1c[nH]cn1)C(=O)N[C@@H](Cc1ccc(O)cc1)C(=O)N[C@@H](Cc1ccc(O)cc1)C(=O)N[C@@H](CC(N)=O)C(=O)N[C@@H](Cc1c[nH]c2ccccc12)C(=O)N[C@@H](CC(C)C)C(=O)N[C@H](C(=O)N[C@@H](CCCNC(=N)N)C(=O)N[C@@H](CCC(N)=O)C(=O)N[C@@H](CCCNC(=N)N)C(=O)N[C@@H](Cc1ccc(O)cc1)C(N)=O)[C@@H](C)O)C(C)C) [Compound 17] | 0.93
Isovaleryl-APEK([AEEA-AEEA-γGlu-C18 diacid])PEADASPEELQQYYVSLRHYYNWLTRQRY-NH2 (SMILES CC(C)CC(=O)N[C@@H](C)C(=O)N1CCC[C@H]1C(=O)N[C@@H](CCC(=O)O)C(=O)N[C@@H](CCCCNC(=O)COCCOCCNC(=O)COCCOCCNC(=O)CC[C@H](NC(=O)CCCCCCCCCCCCCCCCC(=O)O)C(=O)O)C(=O)N1CCC[C@H]1C(=O)N[C@@H](CCC(=O)O)C(=O)N[C@@H](C)C(=O)N[C@@H](CC(=O)O)C(=O)N[C@@H](C)C(=O)N[C@@H](CO)C(=O)N1CCC[C@H]1C(=O)N[C@@H](CCC(=O)O)C(=O)N[C@@H](CCC(=O)O)C(=O)N[C@@H](CC(C)C)C(=O)N[C@@H](CCC(N)=O)C(=O)N[C@@H](CCC(N)=O)C(=O)N[C@@H](Cc1ccc(O)cc1)C(=O)N[C@@H](Cc1ccc(O)cc1)C(=O)N[C@H](C(=O)N[C@@H](CO)C(=O)N[C@@H](CC(C)C)C(=O)N[C@@H](CCCNC(=N)N)C(=O)N[C@@H](Cc1c[nH]cn1)C(=O)N[C@@H](Cc1ccc(O)cc1)C(=O)N[C@@H](Cc1ccc(O)cc1)C(=O)N[C@@H](CC(N)=O)C(=O)N[C@@H](Cc1c[nH]c2ccccc12)C(=O)N[C@@H](CC(C)C)C(=O)N[C@H](C(=O)N[C@@H](CCCNC(=N)N)C(=O)N[C@@H](CCC(N)=O)C(=O)N[C@@H](CCCNC(=N)N)C(=O)N[C@@H](Cc1ccc(O)cc1)C(N)=O)[C@@H](C)O)C(C)C) [Compound 19] | 0.39
